Patent US20240018189A1 (PROTAGONIST THERAPEUTICS, published 2024)
Starred links: 1 amine or outer side, 2 acyl side, 3 side chain; linkers in the order of their positions; H or OH if unused. Positions of bridges follow the written chain, without caps; N, C: chain ends. Non-standard residues stand in square brackets, D forms with d. Groups on a side chain read outwards from the residue. *: point of attachment. PEG12 = NCCOCCOCCOCCOCCOCCOCCOCCOCCOCCOCCOCCOCCC(=O)O; Phe(4-COOH) = N[C@@H](Cc1ccc(C(=O)O)cc1)C(=O)O; Phe(4-tBu) = CC(C)(C)c1ccc(C[C@H](N)C(=O)O)cc1; Phe(4-CN) = N#Cc1ccc(C[C@H](N)C(=O)O)cc1; Dip = N[C@H](C(=O)O)C(c1ccccc1)c1ccccc1; γGlu = O=C(O)[C@H](CCC(=O)[*:2])N[*:1]; 2Nal = N[C@@H](Cc1ccc2ccccc2c1)C(=O)O; AEF = NCCOc1ccc(C[C@H](N)C(=O)O)cc1; Arg(Dimethyl) = dimethyl-arginine; Palmitoyl = CCCCCCCCCCCCCCCC(=O)*; αMeF = C[C@](N)(Cc1ccccc1)C(=O)O; β3hF = N[C@H](CC(=O)O)Cc1ccccc1; Spiral_Pip = not defined here; Isovaleryl = CC(C)CC(=O)*; αMeC = C[C@](N)(CS)C(=O)O; Npc = nipecotic acid; Ahx = NCCCCCC(=O)O

T1: human ferroportin (SLC40A1) fused in frame with GFP (human) (UniProt Q9NP59)
T1 sequence (looked up): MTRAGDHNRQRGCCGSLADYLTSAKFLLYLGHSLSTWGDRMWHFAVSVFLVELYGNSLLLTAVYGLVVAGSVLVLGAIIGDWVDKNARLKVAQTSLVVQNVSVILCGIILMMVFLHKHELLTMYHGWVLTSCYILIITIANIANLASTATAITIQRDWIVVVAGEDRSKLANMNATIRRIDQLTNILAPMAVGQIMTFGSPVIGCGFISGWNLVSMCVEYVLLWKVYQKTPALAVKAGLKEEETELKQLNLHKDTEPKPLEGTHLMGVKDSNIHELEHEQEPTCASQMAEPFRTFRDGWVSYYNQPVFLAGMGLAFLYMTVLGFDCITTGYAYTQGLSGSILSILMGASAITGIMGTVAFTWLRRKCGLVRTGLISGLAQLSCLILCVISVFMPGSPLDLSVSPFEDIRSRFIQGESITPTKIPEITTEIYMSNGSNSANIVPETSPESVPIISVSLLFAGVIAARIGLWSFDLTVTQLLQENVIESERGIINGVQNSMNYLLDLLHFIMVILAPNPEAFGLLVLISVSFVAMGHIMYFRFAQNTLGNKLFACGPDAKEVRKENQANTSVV


target: T1, human ferroportin (SLC40A1) fused in frame with GFP (human); assay: cell-based or functional assay

Binder	FPN EC50	IC50: FPN internalisation	Potency EC50	Potency EC50 (nM)
DTHXPCIKXKKC (N-term isovaleric acid; 4 Dpa; 8 (D)Lys; 9 bhPhe; 10 Lys(Ahx-Palm); C-term NH2) [Compd. ID 17]	8.29 nM	–	–	–
DTHXPCIKXKXC (not fully specified; N-term isovaleric acid; 4 Dpa; 8 (D)Lys; 9 bhPhe; 10 Lys(Ahx-Palm); 11 Spiral_Pip; C-term NH2) [Compd. ID 21]	37.5 nM	–	–	–
Isovaleryl-DTHFP[αMeC]I[dK]FK([PEG12-Palmitoyl])KC-NH2 (disulfide 6-12 (inferred)) [Seq. No. 353]	–	21.5 nM	–	–
Isovaleryl-DTH[Dip][Npc]CI[dK]FK([PEG12-Palmitoyl])KC-NH2 (disulfide 6-12 (inferred)) [Seq. No. 360]	–	9.64 nM	–	–
Isovaleryl-DTH[Dip][Npc]CI[dK][Phe(4-CN)]K([PEG12-Palmitoyl])KC-NH2 (disulfide 6-12 (inferred)) [Seq. No. 347]	–	23 nM	–	–
Isovaleryl-DTH[Dip]PCI[β3hF]K([Ahx-Palmitoyl])[dK]C-NH2 (disulfide 6-11 (inferred)) [Compd. ID 18]	10.8 nM	–	–	–
DTHXPCIKXKKC (N-term isovaleric acid; 4 Dpa; 8 (D)Lys; 9 bhPhe; 10 Lys(Ahx-Palm); 11 (D)Lys; C-term NH2) [Compd. ID 20]	6.66 nM	–	–	–
DTHXPCIKXKKC (not fully specified; N-term isovaleric acid; 4 Dpa; 8 Lys[1Peg2-1Peg2-Ahx-C18_Diacid]; 9 bhPhe; 11 (D)Lys; C-term NH2) [Compd. ID 10]	3.05 nM	–	–	–
DTHXPCIKXKRC (N-term isovaleric acid; 4 Dpa; 8 (D)Lys; 9 bhPhe; 10 Lys(Ahx-Palm); 11 Arg(Nitro); C-term NH2) [Compd. ID 22]	30.1 nM	–	–	–
DTHXPCIKXKC (not fully specified; N-term isovaleric acid; 4 Dpa; 8 Lys[1Peg2-1Peg2-Ahx-C18_Diacid]; 9 bhPhe; 10 (D)Lys; C-term NH2) [Compd. ID 11]	12.7 nM	–	–	–
Isovaleryl-DTH[Dip][Npc]CI[dK][2Nal]K([PEG12-Palmitoyl])KC-NH2 (disulfide 6-12 (inferred)) [Seq. No. 357]	–	10.2 nM	–	–
Isovaleryl-DTHFPCI[dK]FK([PEG12-Palmitoyl])K[αMeC]-NH2 (disulfide 6-12 (inferred)) [Seq. No. 355]	–	7.55 nM	–	–
Isovaleryl-DTH[Dip][Npc]CI[dK][Phe(4-tBu)]K([PEG12-Palmitoyl])KC-NH2 (disulfide 6-12 (inferred)) [Seq. No. 359]	–	8.57 nM	–	–
Isovaleryl-DTH[Dip][Npc]CI[dK][Phe(4-COOH)]K([PEG12-Palmitoyl])KC-NH2 (disulfide 6-12 (inferred)) [Seq. No. 356]	–	0.1 nM	–	–
DTHXPCIKXKPC (N-term isovaleric acid; 4 Dpa; 8 (D)Lys; 9 bhPhe; 10 Lys(Ahx-Palm); 11 Pro(4-Amino); C-term NH2) [Compd. ID 25]	25.7 nM	–	–	–
DTHXPCIKXKXC (N-term isovaleric acid; 4 Dpa; 8 (D)Lys; 9 bhPhe; 10 Lys(Ahx-Palm); 11 Cit; C-term NH2) [Compd. ID 24]	45.8 nM	–	–	–
DTHXPCIKXKRC (N-term isovaleric acid; 4 Dpa; 8 (D)Lys; 9 bhPhe; 10 Lys(Ahx-Palm); 11 Arg(Dimethyl); C-term NH2) [Compd. ID 23]	41.6 nM	–	–	–
Isovaleryl-DTH[Dip]PCI[Arg(Nitro)][β3hF]K([Ahx-Palmitoyl])[dK]C-NH2 (disulfide 6-12 (inferred)) [Compd. ID 28]	27.1 nM	–	–	–

Binder	FPN EC50	IC50: FPN internalisation	Potency EC50	Potency EC50 (nM)
Isovaleryl-DTHFPCIKFKPRSKGCK-NH2 (disulfide 6-16 (inferred); not fully specified (residue 10); also: K10: Lys[PEG11-Palm] (Lys[2PEG11-Palm]) [Ref. Cmpd. 1]	30 nM	–	30 nM	–
Isovaleryl-DTH[Dip][Npc]CI[dK][β3hF]K([Ahx-Palmitoyl])C[dK]-NH2 (disulfide 6-11 (inferred)) [Compd. ID 12]	11.5 nM	–	–	–
DTHXPCIKXKKC (N-term isovaleric acid; 4 Dpa; 8 (D)Lys; 9 bhPhe; 10 Lys(PEG12_Palm); 11 (D)Lys; C-term NH2) [Seq. No. 349]	–	11.2 nM	–	–
Isovaleryl-DTH[Dip][Npc]CIK([γGlu-Palmitoyl])[β3hF]C[dK]-NH2 (disulfide 6-10 (inferred)) [Compd. ID 19]	4.56 nM	–	–	–
Isovaleryl-DTHFP[αMeC]I[dK]FK([PEG12-Palmitoyl])K[αMeC]-NH2 (disulfide 6-12 (inferred)) [Seq. No. 354]	–	10 nM	–	–
FICIPFHTD (all residues D-amino acids (DPhe-DIle-DCys-DIle-DPro-DPhe-DHis-DThr-DAsp); Hy- at the N-terminus; C-term NH2) [RI-Mini Hepcidin]	–	–	–	> 10000 nM
DTHXPCIKXKKC (N-term isovaleric acid; 4 Dpa; 8 (D)Lys; 9 bhPhe; 10 Lys[Palm]; C-term NH2) [Compd. ID 16]	5.85 nM	–	–	–
Isovaleryl-DTH[Dip][Npc]CI[dK][β3hF]K([γGlu-Palmitoyl])C[dK]-NH2 (disulfide 6-11 (inferred)) [Compd. ID 13]	16.1 nM	–	–	–
Isovaleryl-DTH[Dip]PCI[Spiral_Pip][β3hF]K([Ahx-Palmitoyl])[dK]C-NH2 (disulfide 6-12 (inferred); reading uncertain) [Compd. ID 27]	26.3 nM	–	–	–
DTHXXCIKFKKC (N-term isovaleric acid; 4 Dpa; 5 bhPro; 8 (D)Lys; 10 Lys(PEG12_Palm); 11 (D)Lys; C-term NH2) [Seq. No. 350]	–	0.8 nM	–	–
DTHXPCIKXKXC (N-term isovaleric acid; 4 Dpa; 8 (D)Lys; 9 bhPhe; 10 Lys(Ahx-Palm); 11 Cav; C-term NH2) [Compd. ID 26]	32.2 nM	–	–	–
Isovaleryl-DTH[Dip][Npc]CI[dK][AEF]K([PEG12-Palmitoyl])KC-NH2 (disulfide 6-12 (inferred)) [Seq. No. 358]	–	> 3000 nM	–	–
Isovaleryl-DTH[Dip][Npc]CI[dK][αMeF]K([PEG12-Palmitoyl])KC-NH2 (disulfide 6-12 (inferred)) [Seq. No. 348]	–	2.1 nM	–	–
Isovaleryl-DTH[Dip]PCI[Arg(Dimethyl)][β3hF]K([Ahx-Palmitoyl])[dK]C-NH2 (disulfide 6-12 (inferred)) [Compd. ID 29]	10.6 nM	–	–	–
Isovaleryl-DTH[Dip][Npc]CI[dK]FK([PEG12-Palmitoyl])[dK]C-NH2 (disulfide 6-12 (inferred)) [Seq. No. 352]	–	6.48 nM	–	–
Isovaleryl-DTH[Dip][Npc]CI[dK][β3hF]KC[dK]-NH2 (disulfide 6-11 (inferred); not fully specified (residue 10)) [Compd. ID 15]	> 3000 nM	–	–	–
Isovaleryl-DTHF[Npc]CI[dK]FK([PEG12-Palmitoyl])[dK]C-NH2 (disulfide 6-12 (inferred)) [Seq. No. 351]	–	13.2 nM	–	–
